This note sets out measurements from patent publication US20190382481A1 (Janssen / Centocor, published 2019).

Holding throughout (assay): cell-based or functional assay
Experiment [1] deals with T1, human CD33 (human, UniProt P20138 18-364).
The target in experiment [2] is T1, human CD33. The source holds these as a separate data set.
The target in experiment [3] is cyno CD33 (cynomolgus monkey).
Experiment [4] addresses T1, human CD33. This is another data set of the same source.
In experiment [5] the target is T1, human CD33. The source holds these as a separate data set.
In experiment [6] the target is T1, human CD33. This is another data set of the same source.
In experiment [7] the target is T1, human CD33. The source holds these as a separate data set.

Chain of cyno CD33 (cynomolgus monkey) (chain, as listed by the source limits assumed): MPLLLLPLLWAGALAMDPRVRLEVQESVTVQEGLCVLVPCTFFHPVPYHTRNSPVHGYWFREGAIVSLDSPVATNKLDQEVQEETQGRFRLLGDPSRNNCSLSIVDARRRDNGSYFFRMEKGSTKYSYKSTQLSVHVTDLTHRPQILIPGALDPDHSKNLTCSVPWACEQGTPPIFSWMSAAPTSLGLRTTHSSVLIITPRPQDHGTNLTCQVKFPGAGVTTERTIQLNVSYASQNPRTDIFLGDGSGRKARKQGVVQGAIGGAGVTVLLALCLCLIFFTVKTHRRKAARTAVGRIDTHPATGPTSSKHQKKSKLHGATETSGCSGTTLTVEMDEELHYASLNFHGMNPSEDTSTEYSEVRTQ
T1 sequence (P20138 18-364 limits assumed): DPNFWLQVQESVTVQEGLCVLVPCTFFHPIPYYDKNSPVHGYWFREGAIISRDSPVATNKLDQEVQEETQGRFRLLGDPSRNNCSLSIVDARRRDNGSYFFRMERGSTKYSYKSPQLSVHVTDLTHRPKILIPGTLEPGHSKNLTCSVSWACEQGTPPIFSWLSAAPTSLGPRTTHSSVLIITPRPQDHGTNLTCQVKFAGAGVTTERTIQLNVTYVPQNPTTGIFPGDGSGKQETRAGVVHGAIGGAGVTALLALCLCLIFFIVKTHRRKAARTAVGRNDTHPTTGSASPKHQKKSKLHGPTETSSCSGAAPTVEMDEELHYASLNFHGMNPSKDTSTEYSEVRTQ

B1: C3CB12 (bispecific antibody, human IgG4 S228P, lambda, F234A L235A)
heavy 1: not shown
light 1: SYELTQPPSVSVSPGQTASITCSGNKLGAKFASWYQQKPGQSPVLVIYQDNKRPSGIPERFSGSNSGNTATLTISGTQAVDEADYYCQAWDSSTVVFGGGTKLTVLGQPKAAPSVTLFPPSSEELQANKATLVCLISDFYPGAVTVAWKADSSPVKAGVETTTPSKQSNNKYAASSYLSLTPEQWKSHRSYSCQVTHEGSTVEKTVAPTECS
heavy 2: EVQLVESGGGLVQPGGSLRLSCAASGFTFNTYAMNWVRQAPGKGLEWVARIRSKYNNYATYYAASVKGRFTISRDDSKNSLYLQMNSLKTEDTAVYYCARHGNFGNSYVSWFAYWGQGTLVTVSSASTKGPSVFPLAPCSRSTSESTAALGCLVKDYFPEPVTVSWNSGALTSGVHTFPAVLQSSGLYSLSSVVTVPSSSLGTKTYTCNVDHKPSNTKVDKRVESKYGPPCPPCPAPEAAGGPSVFLFPPKPKDTLMISRTPEVTCVVVDVSQEDPEVQFNWYVDGVEVHNAKTKPREEQFNSTYRVVSVLTVLHQDWLNGKEYKCKVSNKGLPSSIEKTISKAKGQPREPQVYTLPPSQEEMTKNQVSLTCLVKGFYPSDIAVEWESNGQPENNYKTTPPVLDSDGSFLLYSKLTVDKSRWQEGNVFSCSVMHEALHNHYTQKSLSLSLGK
light 2: QTVVTQEPSLTVSPGGTVTLTCRSSTGAVTTSNYANWVQQKPGQAPRGLIGGTNKRAPGTPARFSGSLLGGKAALTLSGVQPEDEAEYYCALWYSNLWVFGGGTKLTVLGQPKAAPSVTLFPPSSEELQANKATLVCLISDFYPGAVTVAWKADSSPVKAGVETTTPSKQSNNKYAASSYLSLTPEQWKSHRSYSCQVTHEGSTVEKTVAPTECS
With B1, the “Cytotoxicity EC50 (nM), T-cell mediated cytotoxicity of MOLM-13” value (from here on “Cytotoxicity EC50 (nM)”) in experiment [1] was 0.268 nM. Moreover, the “Primary AML Cell Killing EC50 (nM), ex vivo AML patient whole blood” value (“Primary AML Cell Killing EC50 (nM)” for short) in experiment [2] worked out at 2.63 nM.

B2: C3CB88 (bispecific antibody, human IgG4 S228P, kappa, lambda, F234A L235A)
heavy 1: not shown
light 1: not shown
heavy 2: EVQLVESGGGLVQPGGSLRLSCAASGFTFNTYAMNWVRQAPGKGLEWVARIRSKYNNYATYYAASVKGRFTISRDDSKNSLYLQMNSLKTEDTAVYYCARHGNFGNSYVSWFAYWGQGTLVTVSSASTKGPSVFPLAPCSRSTSESTAALGCLVKDYFPEPVTVSWNSGALTSGVHTFPAVLQSSGLYSLSSVVTVPSSSLGTKTYTCNVDHKPSNTKVDKRVESKYGPPCPPCPAPEAAGGPSVFLFPPKPKDTLMISRTPEVTCVVVDVSQEDPEVQFNWYVDGVEVHNAKTKPREEQFNSTYRVVSVLTVLHQDWLNGKEYKCKVSNKGLPSSIEKTISKAKGQPREPQVYTLPPSQEEMTKNQVSLTCLVKGFYPSDIAVEWESNGQPENNYKTTPPVLDSDGSFLLYSKLTVDKSRWQEGNVFSCSVMHEALHNHYTQKSLSLSLGK
light 2: QTVVTQEPSLTVSPGGTVTLTCRSSTGAVTTSNYANWVQQKPGQAPRGLIGGTNKRAPGTPARFSGSLLGGKAALTLSGVQPEDEAEYYCALWYSNLWVFGGGTKLTVLGQPKAAPSVTLFPPSSEELQANKATLVCLISDFYPGAVTVAWKADSSPVKAGVETTTPSKQSNNKYAASSYLSLTPEQWKSHRSYSCQVTHEGSTVEKTVAPTECS
Take B2: in experiment [3], the “CD33^+ CD14^+ Killing EC50 (nM), ex vivo cynomolgus whole blood” value is 0.89 nM and the “T cell activation EC50 (nM), ex vivo cynomolgus whole blood” value came out at 0.02 nM. Besides, the “Cytotoxicity EC50 (nM)” value in experiment [1] stood at 0.11 nM. In experiment [2], the “Primary AML Cell Killing EC50 (nM)” value stood at 0.672 nM. Also, in experiment [4], the “CD33^+ CD14^+ Killing EC50 (nM), ex vivo human whole blood” value was determined as 0.506 nM and the “MOLM13 Killing EC50 (nM), ex vivo human whole blood” value was 0.671 nM.

B3: C33B782 (antibody, human IgG4 S228P, lambda, F234A L235A)
heavy: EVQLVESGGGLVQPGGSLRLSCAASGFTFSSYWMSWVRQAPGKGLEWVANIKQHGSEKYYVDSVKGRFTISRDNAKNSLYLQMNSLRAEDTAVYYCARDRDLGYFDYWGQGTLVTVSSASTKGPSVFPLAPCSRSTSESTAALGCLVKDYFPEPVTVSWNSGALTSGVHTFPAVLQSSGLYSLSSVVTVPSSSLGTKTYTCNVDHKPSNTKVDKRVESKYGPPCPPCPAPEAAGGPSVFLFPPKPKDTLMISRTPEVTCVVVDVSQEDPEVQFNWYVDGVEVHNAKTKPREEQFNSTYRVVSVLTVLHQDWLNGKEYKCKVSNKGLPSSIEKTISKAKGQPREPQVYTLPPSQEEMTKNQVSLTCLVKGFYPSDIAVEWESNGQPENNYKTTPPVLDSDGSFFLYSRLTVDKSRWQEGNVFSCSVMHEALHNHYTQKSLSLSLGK
light: SYELTQPPSVSVSPGQTASITCSGNKLGAKFASWYQQKPGQSPVLVIYQDNKRPSGIPERFSGSNSGNTATLTISGTQAVDEADYYCQAWDSSTVVFGGGTKLTVLGQPKAAPSVTLFPPSSEELQANKATLVCLISDFYPGAVTVAWKADSSPVKAGVETTTPSKQSNNKYAASSYLSLTPEQWKSHRSYSCQVTHEGSTVEKTVAPTECS
In the case of B3, the “EC50 (nM), CD33 internalization assay (Protein A-MMAF cell viability, MOLM13)” value in experiment [5] amounted to 0.88 nM.

B4: C33B912.CLF (antibody, human IgG1, kappa, V domains shown)
VH: EVQLVESGGGLVQPGRSLRLSCAASGFTFDDYAMHWVRQAPGKGLEWVSGIGWSGGSIVYADSVKGRFKISRDNAKNSLYLQMNSLRAEDTALYYCAKDSPYGDFFDYWGQGTLVTVSS
VL: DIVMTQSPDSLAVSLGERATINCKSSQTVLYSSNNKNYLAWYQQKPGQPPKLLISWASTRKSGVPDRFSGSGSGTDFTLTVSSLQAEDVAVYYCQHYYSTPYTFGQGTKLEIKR
modifications: IgG1 low fucose Fc glycan
As to B4, in experiment [6], the “EC50 ADCC (nM), MOLM-13 target cells, human NK effector cells” value came to 0.292 nM and the “EC50 ADCC (nM), MV4-11 target cells, human NK effector cells” value was found to be 2.01 nM.

B5: C33B48.CLF (antibody, human IgG1, lambda)
heavy: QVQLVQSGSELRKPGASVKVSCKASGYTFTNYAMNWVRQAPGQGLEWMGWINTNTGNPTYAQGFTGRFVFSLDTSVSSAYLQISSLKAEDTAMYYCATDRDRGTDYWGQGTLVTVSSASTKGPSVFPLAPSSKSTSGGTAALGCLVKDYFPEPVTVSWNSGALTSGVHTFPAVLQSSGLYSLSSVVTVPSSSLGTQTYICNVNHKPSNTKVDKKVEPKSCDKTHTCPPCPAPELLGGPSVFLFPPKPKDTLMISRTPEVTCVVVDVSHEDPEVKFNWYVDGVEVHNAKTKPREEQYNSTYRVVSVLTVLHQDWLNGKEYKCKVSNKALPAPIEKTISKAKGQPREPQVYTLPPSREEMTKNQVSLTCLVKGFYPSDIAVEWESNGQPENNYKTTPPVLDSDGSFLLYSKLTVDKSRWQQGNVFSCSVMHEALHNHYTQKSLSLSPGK
light: QSALTQPASVSGSPGQSITISCTGTSSDVGDYNYVSWYQQHPGKVPKLMIYDVSNRPSGVSNRFSGSMSGNTASLTISGLQAEDEADYYCSSYSSSSALEVFGGGTKLTVLGQPKAAPSVTLFPPSSEELQANKATLVCLISDFYPGAVTVAWKADSSPVKAGVETTTPSKQSNNKYAASSYLSLTPEQWKSHRSYSCQVTHEGSTVEKTVAPTECS
modifications: IgG1 low fucose Fc glycan
Turning to B5, in experiment [6], the “EC50 ADCC (nM), MOLM-13 target cells, human NK effector cells” value turned out to be 0.023 nM and the “EC50 ADCC (nM), MV4-11 target cells, human NK effector cells” value was 0.113 nM.

B6: C3CB7 (bispecific antibody, human IgG4 S228P, lambda, F234A L235A)
heavy 1: not shown
light 1: QSALTQPASVSGSPGQSITISCTGTSSDVGDYNYVSWYQQHPGKVPKLMIYDVSNRPSGVSNRFSGSMSGNTASLTISGLQAEDEADYYCSSYSSSSALEVFGGGTKLTVLGQPKAAPSVTLFPPSSEELQANKATLVCLISDFYPGAVTVAWKADSSPVKAGVETTTPSKQSNNKYAASSYLSLTPEQWKSHRSYSCQVTHEGSTVEKTVAPTECS
heavy 2: EVQLVESGGGLVQPGGSLRLSCAASGFTFNTYAMNWVRQAPGKGLEWVARIRSKYNNYATYYAASVKGRFTISRDDSKNSLYLQMNSLKTEDTAVYYCARHGNFGNSYVSWFAYWGQGTLVTVSSASTKGPSVFPLAPCSRSTSESTAALGCLVKDYFPEPVTVSWNSGALTSGVHTFPAVLQSSGLYSLSSVVTVPSSSLGTKTYTCNVDHKPSNTKVDKRVESKYGPPCPPCPAPEAAGGPSVFLFPPKPKDTLMISRTPEVTCVVVDVSQEDPEVQFNWYVDGVEVHNAKTKPREEQFNSTYRVVSVLTVLHQDWLNGKEYKCKVSNKGLPSSIEKTISKAKGQPREPQVYTLPPSQEEMTKNQVSLTCLVKGFYPSDIAVEWESNGQPENNYKTTPPVLDSDGSFLLYSKLTVDKSRWQEGNVFSCSVMHEALHNHYTQKSLSLSLGK
light 2: QTVVTQEPSLTVSPGGTVTLTCRSSTGAVTTSNYANWVQQKPGQAPRGLIGGTNKRAPGTPARFSGSLLGGKAALTLSGVQPEDEAEYYCALWYSNLWVFGGGTKLTVLGQPKAAPSVTLFPPSSEELQANKATLVCLISDFYPGAVTVAWKADSSPVKAGVETTTPSKQSNNKYAASSYLSLTPEQWKSHRSYSCQVTHEGSTVEKTVAPTECS
For B6, in experiment [1], the “Cytotoxicity EC50 (nM)” value was 0.0213 nM. Further, the “Primary AML Cell Killing EC50 (nM)” value in experiment [2] was 0.332 nM.

B7: C3CB97 (bispecific antibody, human IgG4 S228P, lambda, F234A L235A)
heavy 1: not shown
light 1: QSALTQPASVSGSPGQSITISCTGTSSDVGDYNYVSWYQQHPGKVPKLMIYDVSNRPSGVSNRFSGSMSGNTASLTISGLQAEDEADYYCSSYSSSSALEVFGGGTKLTVLGQPKAAPSVTLFPPSSEELQANKATLVCLISDFYPGAVTVAWKADSSPVKAGVETTTPSKQSNNKYAASSYLSLTPEQWKSHRSYSCQVTHEGSTVEKTVAPTECS
heavy 2: QVQLQQSGPRLVRPSQTLSLTCAISGDSVFNNNAAWSWIRQSPSRGLEWLGRTYYRSKWLYDYAVSVKSRITVNPDTSRNQFTLQLNSVTPEDTALYYCARGYSSSFDYWGQGTLVTVSSASTKGPSVFPLAPCSRSTSESTAALGCLVKDYFPEPVTVSWNSGALTSGVHTFPAVLQSSGLYSLSSVVTVPSSSLGTKTYTCNVDHKPSNTKVDKRVESKYGPPCPPCPAPEAAGGPSVFLFPPKPKDTLMISRTPEVTCVVVDVSQEDPEVQFNWYVDGVEVHNAKTKPREEQFNSTYRVVSVLTVLHQDWLNGKEYKCKVSNKGLPSSIEKTISKAKGQPREPQVYTLPPSQEEMTKNQVSLTCLVKGFYPSDIAVEWESNGQPENNYKTTPPVLDSDGSFLLYSKLTVDKSRWQEGNVFSCSVMHEALHNHYTQKSLSLSLGK
light 2: QSALTQPASVSGSPGQSITISCTGTSSNIGTYKFVSWYQQHPDKAPKVLLYEVSKRPSGVSSRFSGSKSGNTASLTISGLQAEDQADYHCVSYAGSGTLLFGGGTKLTVLGQPKAAPSVTLFPPSSEELQANKATLVCLISDFYPGAVTVAWKADSSPVKAGVETTTPSKQSNNKYAASSYLSLTPEQWKSHRSYSCQVTHEGSTVEKTVAPTECS
In the case of B7, the “Primary AML Cell Killing EC50 (nM)” value in experiment [2] was ~0.232 nM.

B8: C33B836 (antibody, human IgG4 S228P, lambda, F234A L235A)
heavy: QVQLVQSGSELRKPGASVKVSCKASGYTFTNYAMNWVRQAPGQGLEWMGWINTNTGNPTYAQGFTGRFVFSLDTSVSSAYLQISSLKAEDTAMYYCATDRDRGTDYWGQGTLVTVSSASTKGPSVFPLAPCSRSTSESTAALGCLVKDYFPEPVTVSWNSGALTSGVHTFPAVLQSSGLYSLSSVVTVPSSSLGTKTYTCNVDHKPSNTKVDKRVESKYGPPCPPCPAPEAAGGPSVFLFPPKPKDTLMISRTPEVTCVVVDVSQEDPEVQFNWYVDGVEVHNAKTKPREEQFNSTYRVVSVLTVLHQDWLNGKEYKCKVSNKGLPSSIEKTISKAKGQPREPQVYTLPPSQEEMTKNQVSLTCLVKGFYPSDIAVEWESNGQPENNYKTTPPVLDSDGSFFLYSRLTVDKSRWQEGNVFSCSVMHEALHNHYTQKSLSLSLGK
light: QSALTQPASVSGSPGQSITISCTGTSSDVGDYNYVSWYQQHPGKVPKLMIYDVSNRPSGVSNRFSGSMSGNTASLTISGLQAEDEADYYCSSYSSSSALEVFGGGTKLTVLGQPKAAPSVTLFPPSSEELQANKATLVCLISDFYPGAVTVAWKADSSPVKAGVETTTPSKQSNNKYAASSYLSLTPEQWKSHRSYSCQVTHEGSTVEKTVAPTECS
As for B8, in experiment [5], the “EC50 (nM), CD33 internalization assay (Protein A-MMAF cell viability, MOLM13)” value amounted to 0.04 nM.

B9: C3CB189 (bispecific antibody, human IgG4 S228P, kappa, lambda, F234A L235A)
heavy 1: not shown
light 1: not shown
heavy 2: QVQLQQSGPRLVRPSQTLSLTCAISGDSVFNNNAAWSWIRQSPSRGLEWLGRTYYRSKWLYDYAVSVKSRITVNPDTSRNQFTLQLNSVTPEDTALYYCARGYSSSFDYWGQGTLVTVSSASTKGPSVFPLAPCSRSTSESTAALGCLVKDYFPEPVTVSWNSGALTSGVHTFPAVLQSSGLYSLSSVVTVPSSSLGTKTYTCNVDHKPSNTKVDKRVESKYGPPCPPCPAPEAAGGPSVFLFPPKPKDTLMISRTPEVTCVVVDVSQEDPEVQFNWYVDGVEVHNAKTKPREEQFNSTYRVVSVLTVLHQDWLNGKEYKCKVSNKGLPSSIEKTISKAKGQPREPQVYTLPPSQEEMTKNQVSLTCLVKGFYPSDIAVEWESNGQPENNYKTTPPVLDSDGSFLLYSKLTVDKSRWQEGNVFSCSVMHEALHNHYTQKSLSLSLGK
light 2: QSALTQPASVSGSPGQSITISCTGTSSNIGTYKFVSWYQQHPDKAPKVLLYEVSKRPSGVSSRFSGSKSGNTASLTISGLQAEDQADYHCVSYAGSGTLLFGGGTKLTVLGQPKAAPSVTLFPPSSEELQANKATLVCLISDFYPGAVTVAWKADSSPVKAGVETTTPSKQSNNKYAASSYLSLTPEQWKSHRSYSCQVTHEGSTVEKTVAPTECS
Take B9: in experiment [3], the “CD33^+ CD14^+ Killing EC50 (nM), ex vivo cynomolgus whole blood” value is 3.6 nM and the “T cell activation EC50 (nM), ex vivo cynomolgus whole blood” value came to 0.02 nM. Further, the “Primary AML Cell Killing EC50 (nM)” value in experiment [2] was found to be 0.578 nM. In experiment [4], the “CD33^+ CD14^+ Killing EC50 (nM), ex vivo human whole blood” value came out at 1.16 nM and the “MOLM13 Killing EC50 (nM), ex vivo human whole blood” value came out at 0.168 nM. Besides, in experiment [7], the “IFN-gamma release, Median EC50” value turned out to be 0.16 nM; the “IL-1beta release, Median EC50” value stood at 0.045 nM; the “IL-2 release, Median EC50” value worked out at 0.346 nM; the “IL-4 release, Median EC50” value came out at 0.078 nM. Further, in experiment [7], the “IL-8 release, Median EC50” value is 0.042 nM; the “IL-10 release, Median EC50” value is 0.123 nM; the “IL-13 release, Median EC50” value came to 0.034 nM; the “TNF-alpha release, Median EC50” value turned out to be 0.208 nM.
